Assay results as given in the nanobody polyreactivity screen of Harvey et al. (2022).

Test: yeast display, Sf9 membrane polyspecificity reagent, FACS + sequencing; frameworks hold sequencing errors
Outline: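 A synthetic nanobody library was expressed on Saccharomyces cerevisiae BJ5465 by galactose induction for 36–48 hours. The library was stained for 1 hour at 4 °C with 10% biotinylated, detergent-solubilized Sf9 membrane reagent and enriched with streptavidin microbeads before FACS. Low and high (top ~1%) gates were set on anti-HA fluorescence for expression and streptavidin fluorescence for reagent binding, and each polyreactivity label reflects the gate of origin.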

Row | Sequence | polyreactivity (PSR sort gate)
1 | QVHLVESGGGLVQAGGSLRLSCAASGFIFRSYAMGWYRQAPGKEREFVAAITTRGTGTYYADSVKGRFTISRDNEKNTFYLQMNSLKPEDTAVYYCAARRGWGDDYWGQGTQVTVSS | high polyreactivity
2 | QVQLVESGGGLVQAGGSLRLSCAASGLIFKFYAMGGYRQAAGKERELVARISSSGGSTYYADSVKGRFTISRDNAKNTVYLQMNSLKPEDTAVYYCAAGAYYVERYARSSIFSYYYWGQGTQVTVSS | high polyreactivity
3 | QVQLVESGGGLVQAGGSLRLSCAASGSTFGINAMGGYRPAPGKERELVAAITASGGRTYYADSVKGRFTISRDNAKNTVYLQMNSLKPEDTAVYYCAAGFYPYYYWGQGTQVTVSS | low polyreactivity
4 | QVQLVESGGGLVQAGGSLRLSCAASGRTFYFNAMRWYRQAPGKERELVAGISGDGSTNYADSVKGRFTISRDNAKNTVYLQMNSLKPEDTAVYYCAARIRPGYRTWYYSWGQGTQVTVSS | low polyreactivity
5 | QVQLVESGGGLVQAGGSLRLSCAASGSIFYQNAMGWYIQAPGKERELVAAITSDGSTYYADSVKGRFTISRDNAKNTVYLQMNSLKPEDTAVYYCAAEYYGHRYDYWGQGTQVTVSS | low polyreactivity
6 | QVQLVESGGGLVQAGGSLRLSCAASGGIFGSYAMGWYRQAPGKERELVAAISWTGGSTYYADSVKGRFTISRDTAKNTVYLQMNSLKREDTAVYYCNADTYRRAQLRFNSWGQGTQVTVSS | low polyreactivity
7 | QVQLVESGGGLVQAGGSLRLSCAASGSTFWYYAMGWSRQAPGKERELVAAIRRGGSTYYADSVKGRFTISRDNAKNTVYLQMNSLKPVDTAVYYCAAERPYKTFGYGYWGQGTQVTVSS | high polyreactivity
8 | QVQLVESGGGIVQAGGSLRLSCAASGFTFNRNAMVWYRQAPGKERELVAAISWSGGSTYYADSVKGRFTISRYNAKNTVYLQMNSLKPEDTAVYYCAKGYRRVYGPFYYWGQGTQVTVSS | low polyreactivity
9 | QVQLVESGGGLVQAGGSLRLSCAASGRIIGLYTMGWYRQAPGKERELVARITSGDRTYYADSVKGRFTISRDNAKNTVYLQMNSLKPEDTAVYYCAAEFTYRYDYWGQGTQVTVSS | high polyreactivity
10 | QVQLVESGGGLVQAGGSLRLSCAASGRTFGQNAMGWYRQAPGKERELVAVISSRGGSTYYADSVKGRFTISRDNAKNTVYLQMNSLKPEDTAVYYCNTDAQSRQTIRTGYDSWGQGTQVTVSS | high polyreactivity
11 | QVQLVESGGGLVQAGGSLRLSCAASGSIFAYYAMGWYRQAPGKEMELVARIRRRSSSTFYADSVKGRFTISRDNAKNTVYLQMNSLKPEDTAVYYCAVRGPGTSTYWYHEYEYWGQGTQVTVSS | high polyreactivity
12 | QVQLVESGGGLVQAGGSLRLSCAASGRIFNPYAMGWYRQAPGKERELVAAISRGGRTYYADSVKGRFTISRDNAKNTVYLQMNSLKPEDTAVYYCNAGRGLREDDYWGQGTQVTVSS | low polyreactivity
13 | QVQLVESGGGLDQAGGSLRLSCAASGFIFYSNAMGWYRQAPGKERELVAAISRGGGSTYYADSVKGRFTISRDNAKNTVYLQLNSLKPEDTAVYYCAKRRLSPQDDYWGQGTQVTLSS | high polyreactivity
14 | QVQRVESGGGLVQAGGSLRLSCAASGIFYWYGMGWYRQAPGKDRELVASITGGGRTYYADSVKGRFTISRDNAKNTVYLQMNSLKPEDTAVNYCATRYWGGLPRRWYDYWGQGTQVTVSS | high polyreactivity
15 | QVQLVESGGGLFQAGGSLRLSCAASGRIFGAYTKRSYRQAPGKERELVAAITGRGGGTYYADSVKGRFTISRDNAKNTVYLQMNSLKPEDTAVYYCNVKLYYYYFRMYYWGQGTQVTVSS | low polyreactivity
16 | QVQLVESGGVLVQAGGSLRLSCAASGRTFGWYAMGWYRQAPGKERELVAAITWRGGSTYYADSVKGRFTISRDNAKNTVYLQMNILKPEDTAVYYCAAAAEKRSYYWGQGTQVTVSS | high polyreactivity
17 | QVQLVESGGGLVQAGGSLRLSCAASGYIFFFYAMGWYRQAPGKERELVASITYRGGSTYYADSVKGRFTISRDNSKNTVYLQMNSLKPEDTAVYYCAADVRASRFDYWGQGTQVTVSS | low polyreactivity
18 | QVQLVESGGGIVQAGGSLRLSCAASGSIFTRYAMGWYRPAPGKERELVAAITKSGSRTYYADSVKGRFTISRDNAKNTVYLQLNCLIAEDTAVFYCATLQGDSSSQYDYWGQGTQVTVSS | high polyreactivity
19 | QVQLVESGGGLVQAGGRLRLSCAASGFTFGYYTMGWYRQAPGKESELVASISRTGGRTYADSVKGRFTISRDNAKNTVFLQMNSLKPEDTAVYYCNRKKYFSYPSDYGYGYWGQGTQVTVSS | high polyreactivity
20 | QVQLVESGGGLVQAGGSLRLSCAASGITIGYNAMGWYRQAPGKERELVATIRSGGSTYYADSVKGRFTISRDNAQKTVYLQMNSLKPEDTAVYYCNRDGYYYSTFDFDYWGQGTQVTVSS | low polyreactivity
21 | QVQLVESGGGLVQAGGSLRLSCAASGSTLTRNDMGWYRQAPGKERELVAAITFSGSDTYYADSVKGRFTISRDNANNTVYLQMNSLKPEDTAVYYCAAEYGGYEYDQWGQGTQVTVSS | low polyreactivity
22 | QVQLVESGGGLVQAGGSLRLSCAASGSTFNQNAMGWYRQAPGKERELVAAITVDGSSTYYADSVKGRFTISRDNAKNTVYLQMNSLKPEDTAVYYCAAGYSARSSGYTGGYDYWGQGTQVTVSS | high polyreactivity

Row | Sequence | polyreactivity (PSR sort gate)
23 | QVQLVESGGGLVQAGGSLRISCAASGFIFRQYAMGWYRQAPGKERELVAAISRSGGSTYYADSVKGRFTISRDNAKNTVYLQMNSLKPEDTAVYYCNAVPRKYTDEFDYWGQGTQVTVSS | high polyreactivity
24 | QVQLVESGAGLVQAGGSLRRSCAASGGNFYYNVMGWYRQAPGKERELLAAIDTSGGNRYADSVKGRFTISRDNAKNTVYLQMNSLNPEDTAVYYSAVGAYWYFGIVSYGYDYWGQGTQVTVSS | low polyreactivity
25 | QVQLVESGGGLVQAGGSLRLSCAASGRIFRYNAMGWYRQAPGKERELVAAISWTVGRTYYADSVKGRFTISRDNAKNTVYLQMNSLKPEDTAVYYCATDVGYYRKYEYYYWGQGTQVTVSS | high polyreactivity
26 | QVQLVESGGGLVQAGGSLRISSAASGSIFLVNALGWYRHAPGKERELVAGISDGGSTYYADSVKGRFTISRDNAKNSVYLLLICLKPEDTAVYFCAAESEQWFSYVLSYDWESDSWGQGSQVTVSS | low polyreactivity
27 | QVQLVESGGGLVQAGGSLRLSCAASGSTLFIYAMGWYRQAPGKEREFVAGISYSGGSTYYADSVKGRFTISRDNAKNTVYLQMNSLKPEDTAVYYCAARTFSKPLTYRPYSGLFYYWGQGTQVTVSS | high polyreactivity
28 | QVQLVESGGGLVQAGGSLRLSCAASGYTFVTYAMGWYRQAPGKERELVAAISYTGGSTYYADSVKGRFTISRDNAKNTVYLQMNSLKPEDTAVYYCATLRNHYRYDYWGQGTQVTVSS | low polyreactivity
29 | QVQLVESGGGLVQAGGSLRLSCAASGRTFYRNAMGWYRQAPGKERELVARINDGAGTYYADSVKGRFTISRDNAKNTVYLQMNSLKPEDTAVYYCADDTWGTPTPFVHYPEFEHWGQGTQVTVSS | low polyreactivity
30 | QVQLVESGGGLVQAGGSLRLSCAASGSIYDRYVMGWYRQAPGKERELVAAISKSGGNTYYADSVKGRFTISRDNAKNTVYLQMNSLKPEDTAVYYCNARSGRYYLGYGYWGQGTQVTVSS | high polyreactivity
31 | QVQLVESGGGLVQAGGSLRLSCAASGRIFVVYAMGWYRQAPGKERELVAAITYGGGSTHYADSVKGRFTISRDNAKNTVYLQINSLIPEDTAVYYCAADLFYHSYGYEYWGQGTQVTVSS | low polyreactivity
32 | QVQLVESGRGLVQAGGTLRLSCAPYGRTFYPIAMAWYRQAPGKDRELVAAISYSGGSTYYADSVKGRFTISRDNAKNTVYLQMNRLKPEDTAVYDCAAAFSRDSRDLWGQGTQVTVSS | low polyreactivity
33 | QVQLVESGGGLVQAGGSLRLSCAASGLIFRYYAMGWYSKAPGKERELVAVINYSGGRTYYADSVKGRFTISRDNAKNTVYLQMNSLKPEDTAVYYCAASFASKYEYWGQGTQVTVSS | high polyreactivity
34 | QVQLVESGGGLVQAGGSLRLSCAASGRIFGDYAMGWYRQAPGKERELVAGINFSGGSTYYADSVKGRFTISRDNAKNTVYLQMNSLKPEDTAVYYCNVDSSTIWYLVPGDYWGQGTQVTVSS | low polyreactivity
35 | QDQLVESGGGLDQAGGSLRLSCAASGNIFYSYAMGCYRQAPGKERELVAAISSSGGRTYYADSVKGRFTISRDNAKNTVYLQMNSLKPEDTELYYCNAYVQVMRYLFGRPTVYPYDYWGQGTQVTVSS | high polyreactivity
36 | QVQLVESGGGLVQAGGSLRLSCAASGSIFRYYAMGWYIQAPGKERELVASITRGGTRTYYADSVKGRFTISRDYAQNTVYLQMNSLKPEDTAVYYCAATYAWYVAPTYDYWGQGTQVTVSS | high polyreactivity
37 | QVQLVESGGGLVQAGGSLRLSCAASGSIFATNAMGWYRQAPGKERELVAAISRSGASTYYADSVKGRFTISRDNAKNTVYLQMNSLKPEDPAVYYCNKVLYRDAYHSYGFDYWGQGTQVTVSS | high polyreactivity
38 | QDQLVESGGGLVQAGGSLRLSCAASGRTFADYAMGWYRQAPGKERELVAAISWRGGSTYYADSVKGRFTISRDNAKNTVYLQLNSLNPEDTAVYYCNKAYPADYDYWGQGTQVTVSS | low polyreactivity
39 | QVQLVESGGGLVQAGGSLRLSCAASGITFWGYVMGWYRQAPGKERELVAAISSSGGRTYYADSVKGRFTISRDNAKNTVYLQMNSLKPEDTAVYYCAARFLYANRYSVDYDYWGQGTQVTVSS | high polyreactivity
40 | QVQLVESGGGLVQAGGSLRLSCAASGRIFGYYARGWYRQAPGKEREFVAGITQRTDSTYYADSVKGRFTISRDNAKNTVYLQMNSLKPEDTAVYFCAARGYGGYHWGYYWGQGTQVTVSS | high polyreactivity
41 | QVQLVESGGGLVQAGGSLRLSCAASGSTFGGYAMGWYRQAPGKERELVAAISSSGGITYYADSVKGRFTISRDNAKNTVYLQMNSLKPEDTAVYYCAAPLGGGARWGRWWLYDSWGQGTQVTVSS | low polyreactivity
42 | QVQLVESGGGLVQAGGSLRLRCAASGSTFTGNTMGWYRQAPGKERELVAAITYRGGSTYYADSVKGRLTISRDNAKNTVYLQMNSLKPEDTAVYYCAAAGYYYSVEGAGPRYDYWGQGTQVTVSS | low polyreactivity
43 | QVQLVESGGGLVQAGGSLRLSCAASGRIFLWNAMGWYRQAPGKERELVAAISWSGGSTYYADSVKGRFTISRDNAKNTVYLQMNSLKPEDTAVYYCNRLLSLEYGYWGQGTQVTVSS | high polyreactivity
